According to the Human Domainome abundance scans (Beltran et al. 2025):
± gives the uncertainty stated by the source.

B1: SWI/SNF complex subunit SMARCC1, residues 620 to 663; numbered along this chain, Q92922 (parent)
chain: GREWTEQETLLLLEALEMYKDDWNKVSEHVGSRTQDECILHFLR
B2: Chromodomain-helicase-DNA-binding protein 5, residues 338 to 390; numbered along this chain, Q8TDI0 (parent)
chain: YETDHQDYCEVCQQGGEIILCDTCPRAYHLVCLDPELEKAPEGKWSCPHCEKE

Variants of: B1
Experiment: abundance fitness (aPCA) (normalised: wild type 0, dead -1); higher = more abundant; growth selection in yeast, the domain comes from the species named
Settings: Homo sapiens

Variant	abundance fitness
GREWTEQETLLLLEALEMYKDDWNKVSEHVGSRTQDECILEFLR [H41E]	-0.178 ± 0.11
GREWTEQETLLLLEALEMYKDDWNKVSEHVGSRTQDECILYFLR [H41Y]	0.184 ± 0.098
GREWTEQETLLLLEALEMYKDDWNKVSEHVGSRTQDECILLFLR [H41L]	-0.247 ± 0.06
GREWTEQETLLLLEALEMYKDDWNKVSEHVGSRTQDECILAFLR [H41A]	0.064 ± 0.059
GREWTEQETLLLLEALEMYKDDWNKVSEHVGSRTQDECILQFLR [H41Q]	-0.21 ± 0.095
GREWTEQETLLLLEALEMYKDDWNKVSEHVGSRTQDECILRFLR [H41R]	-0.019 ± 0.074
GREWTEQETLLLLEALEMYKDDWNKVSEHVGSRTQDECILTFLR [H41T]	-0.161 ± 0.059
GREWTEQETLLLLEALEMYKDDWNKVSEHVGSRTQDECILNFLR [H41N]	0.097 ± 0.12
GREWTEQETLLLLEALEMYKDDWNKVSEHVGSRTQDECILGFLR [H41G]	-0.407 ± 0.092
GREWTEQETLLLLEALEMYKDDWNKVSEHVGSRTQDECILWFLR [H41W]	-0.142 ± 0.11
GREWTEQETLLLLEALEMYKDDWNKVSEHVGSRTQDECILCFLR [H41C]	-0.089 ± 0.14
GREWTEQETLLLLEALEMYKDDWNKVSEHVGSRTQDECILFFLR [H41F]	-0.189 ± 0.15
GREWTEQETLLLLEALEMYKDDWNKVSEHVGSRTQDECILIFLR [H41I]	-0.537 ± 0.15
GREWTEQETLLLLEALEMYKDDWNKVSEHVGSRTQDECILKFLR [H41K]	0.223 ± 0.11
GREWTEQETLLLLEALEMYKDDWNKVSEHVGSRTQDECILSFLR [H41S]	-0.357 ± 0.071
GREWTEQETLLLLEALEMYKDDWNKVSEHVGSRTQDECILMFLR [H41M]	-0.187 ± 0.12
GREWTEQETLLLLEALEMYKDDWNKVSEHVGSRTQDECILHELR [F42E]	0.767 ± 0.18
GREWTEQETLLLLEALEMYKDDWNKVSEHVGSRTQDECILHLLR [F42L]	-0.29 ± 0.073
GREWTEQETLLLLEALEMYKDDWNKVSEHVGSRTQDECILHTLR [F42T]	-0.007 ± 0.26
GREWTEQETLLLLEALEMYKDDWNKVSEHVGSRTQDECILHWLR [F42W]	0.401 ± 0.089

Variant	abundance fitness
GREWTEQETLLLLEALEMYKDDWNKVSEHVGSRTQDECILHNLR [F42N]	0.429 ± 0.11
GREWTEQETLLLLEALEMYKDDWNKVSEHVGSRTQDECILHGLR [F42G]	0.307 ± 0.073
GREWTEQETLLLLEALEMYKDDWNKVSEHVGSRTQDECILHVLR [F42V]	-0.134 ± 0.11
GREWTEQETLLLLEALEMYKDDWNKVSEHVGSRTQDECILHPLR [F42P]	0.405 ± 0.092
GREWTEQETLLLLEALEMYKDDWNKVSEHVGSRTQDECILHKLR [F42K]	0.592 ± 0.087
GREWTEQETLLLLEALEMYKDDWNKVSEHVGSRTQDECILHYLR [F42Y]	0.349 ± 0.13
GREWTEQETLLLLEALEMYKDDWNKVSEHVGSRTQDECILHSLR [F42S]	0.25 ± 0.092
GREWTEQETLLLLEALEMYKDDWNKVSEHVGSRTQDECILHRLR [F42R]	0.337 ± 0.083
GREWTEQETLLLLEALEMYKDDWNKVSEHVGSRTQDECILHCLR [F42C]	-0.286 ± 0.15
GREWTEQETLLLLEALEMYKDDWNKVSEHVGSRTQDECILHMLR [F42M]	-0.2 ± 0.14
GREWTEQETLLLLEALEMYKDDWNKVSEHVGSRTQDECILHALR [F42A]	0.053 ± 0.088
GREWTEQETLLLLEALEMYKDDWNKVSEHVGSRTQDECIQHFLR [L40Q]	0.204 ± 0.09
GREWTEQETLLLLEALEMYKDDWNKVSEHVGSRTQDECIRHFLR [L40R]	0.157 ± 0.062
GREWTEQETLLLLEALEMYKDDWNKVSEHVGSRTQDECIPHFLR [L40P]	-0.299 ± 0.067
GREWTEQETLLLLEALEMYKDDWNKVSEHVGSRTQDECIYHFLR [L40Y]	0.213 ± 0.079
GREWTEQETLLLLEALEMYKDDWNKVSEHVGSRTQDECITHFLR [L40T]	0.206 ± 0.057
GREWTEQETLLLLEALEMYKDDWNKVSEHVGSRTQDECIMHFLR [L40M]	0.057 ± 0.13
GREWTEQETLLLLEALEMYKDDWNKVSEHVGSRTQDECISHFLR [L40S]	0.266 ± 0.057
GREWTEQETLLLLEALEMYKDDWNKVSEHVGSRTQDECINHFLR [L40N]	0.135 ± 0.069
GREWTEQETLLLLEALEMYKDDWNKVSEHVGSRTQDECIWHFLR [L40W]	0.326 ± 0.14

Variant	abundance fitness
GREWTEQETLLLLEALEMYKDDWNKVSEHVGSRTQDECILHFWR [L43W]	0.076 ± 0.074
GREWTEQETLLLLEALEMYKDDWNKVSEHVGSRTQDECILHFPR [L43P]	0.302 ± 0.065
GREWTEQETLLLLEALEMYKDDWNKVSEHVGSRTQDECILHFTR [L43T]	0.584 ± 0.063
GREWTEQETLLLLEALEMYKDDWNKVSEHVGSRTQDECILHFAR [L43A]	0.286 ± 0.069
GREWTEQETLLLLEALEMYKDDWNKVSEHVGSRTQDECILHFER [L43E]	0.582 ± 0.07
GREWTEQETLLLLEALEMYKDDWNKVSEHVGSRTQDECILHFDR [L43D]	0.587 ± 0.069
GREWTEQETLLLLEALEMYKDDWNKVSEHVGSRTQDECILHFHR [L43H]	0.514 ± 0.077
GREWTEQETLLLLEALEMYKDDWNKVSEHVGSRTQDECILHFGR [L43G]	0.342 ± 0.094
GREWTEQETLLLLEALEMYKDDWNKVSEHVGSRTQDECILHFVR [L43V]	0.209 ± 0.058
GREWTEQETLLLLEALEMYKDDWNKVSEHVGSRTQDECILHFQR [L43Q]	0.645 ± 0.076
GREWTEQETLLLLEALEMYKDDWNKVSEHVGSRTQDECILHFRR [L43R]	0.507 ± 0.049
GREWTEQETLLLLEALEMYKDDWNKVSEHVGSRTQDECILHFSR [L43S]	0.338 ± 0.058
GREWTEQETLLLLEALEMYKDDWNKVSEHVGSRTQDECILHFCR [L43C]	0.187 ± 0.075
GREWTEQETLLLLEALEMYKDDWNKVSEHVGSRTQDECILHFFR [L43F]	0.149 ± 0.07
GREWTEQETLLLLEALEMYKDDWNKVSEHVGSRTQDECILHFIR [L43I]	0.098 ± 0.062
GREWTEQETLLLLEALEMYKDDWNKVSEHVGSRTQDECILHFMR [L43M]	0.184 ± 0.11
GREWTEQETLLLLEALEMYKDDWNKVSEHVGSRTQDECILHFKR [L43K]	0.554 ± 0.07
GREWTEQETLLLLEALEMYKDDWNKVSEHVGSRTQDECILHFYR [L43Y]	0.126 ± 0.085

Variants of: B2
Experiment: as above
Settings: Homo sapiens

Variant	abundance fitness
Y8N	0.227 ± 0.18
Y8G	0.078 ± 0.11
Y8L	0.06 ± 0.1
Y8S	0.014 ± 0.11
Y8H	0.349 ± 0.17
Y8F	-0.204 ± 0.25
Y8C	-0.337 ± 0.23
Y8D	-0.199 ± 0.25
Y8E	0.306 ± 0.12
Y8I	0.241 ± 0.16
Y8A	0.142 ± 0.089
Y8K	-0.067 ± 0.13
Y8W	-0.111 ± 0.14
Y8T	-0.088 ± 0.14
Y8V	0.054 ± 0.1
Y8M	0.102 ± 0.13
Y8Q	0.437 ± 0.15
Y8P	0.33 ± 0.13
Y8R	0.211 ± 0.1
E10C	-0.001 ± 0.17
E10L	0.175 ± 0.098
E10N	0.338 ± 0.18
E10D	-0.14 ± 0.18
E10S	-0.112 ± 0.11

Variant	abundance fitness
E10A	-0.064 ± 0.1
E10M	-0.07 ± 0.18
E10W	0.234 ± 0.14
E10Q	0.024 ± 0.13
E10G	0.015 ± 0.11
E10T	-0.004 ± 0.14
E10H	-0.394 ± 0.2
E10I	0.188 ± 0.18
E10F	0.256 ± 0.17
E10R	0.043 ± 0.11
E10K	0.2 ± 0.12
D7T	0.112 ± 0.15
D7Y	-0.676 ± 0.39
D7R	-0.154 ± 0.14
D7L	-0.527 ± 0.21
D7Q	0.176 ± 0.17
D7C	-0.669 ± 0.24
D7M	0.167 ± 0.21
D7A	-0.045 ± 0.15
D7I	-0.317 ± 0.28
D7V	0.096 ± 0.12
D7H	-0.296 ± 0.36
D7W	-0.613 ± 0.18
D7F	-0.725 ± 0.4

Variant	abundance fitness
D7G	-0.252 ± 0.12
D7N	-0.129 ± 0.097
D7E	-0.255 ± 0.16
D7S	-0.257 ± 0.16
D7K	-0.313 ± 0.15
Y1W	0.122 ± 0.23
Y1F	-0.041 ± 0.22
Y1E	0.321 ± 0.3
Y1C	0.245 ± 0.22
Y1N	-0.336 ± 0.39
Y1S	-0.481 ± 0.38
Y1G	0.239 ± 0.27
Y1K	0.125 ± 0.48
Y1D	-0.839 ± 0.33
Y1V	0.159 ± 0.36
Y1R	0.063 ± 0.47
Q6Y	-0.422 ± 0.2
Q6H	-0.286 ± 0.18
Q6W	-0.421 ± 0.12
Q6P	0.25 ± 0.21
Q6R	-0.183 ± 0.14
Q6S	-0.047 ± 0.12
Q6L	-0.286 ± 0.11
Q6G	-0.313 ± 0.12

Variant	abundance fitness
Q6E	-0.186 ± 0.22
Q6A	0.193 ± 0.29
Q6C	-0.153 ± 0.13
Q6F	-0.234 ± 0.13
Q6D	-0.199 ± 0.23
Q6V	-0.199 ± 0.12
E2M	0.789 ± 0.31
E2F	0.018 ± 0.26
E2P	-0.175 ± 0.22
E2S	0.451 ± 0.15
E2W	-0.092 ± 0.22
E2L	0.287 ± 0.16
E2C	0.423 ± 0.28
E2H	0.022 ± 0.36
E2I	0.814 ± 0.25
E2K	0.529 ± 0.2
E2G	0.072 ± 0.1
E2N	0.405 ± 0.28
E2T	0.488 ± 0.21
E2A	-0.071 ± 0.13
E2R	0.267 ± 0.12
E2V	-0.484 ± 0.12
D4I	0.03 ± 0.15
D4G	0.001 ± 0.083

Variant	abundance fitness
D4Y	-0.337 ± 0.37
D4V	0.117 ± 0.089
D4Q	0.368 ± 0.18
D4H	-0.056 ± 0.16
D4F	0.04 ± 0.16
D4R	0.054 ± 0.09
D4W	-0.014 ± 0.11
D4P	-0.049 ± 0.14
D4M	0.627 ± 0.13
D4K	0.073 ± 0.18
D4E	0.081 ± 0.11
D4C	0.128 ± 0.14
D4A	0.244 ± 0.099
D4L	0.095 ± 0.095
D4N	0.106 ± 0.13
D4T	-0.008 ± 0.12
C9I	-0.774 ± 0.3
C9K	-0.804 ± 0.18
C9G	-0.593 ± 0.095
C9E	-0.611 ± 0.15
C9F	-1.18 ± 0.22
C9H	-0.397 ± 0.23
C9R	-0.752 ± 0.12
C9Q	-1.04 ± 0.27

Variant	abundance fitness
C9L	-0.844 ± 0.13
C9M	-0.803 ± 0.16
C9N	-0.764 ± 0.21
C9A	-0.726 ± 0.12
C9D	-0.618 ± 0.21
C9T	-0.643 ± 0.13
C9S	-0.809 ± 0.17
C9V	-1.07 ± 0.15
C9Y	-0.489 ± 0.12
C9W	-1.08 ± 0.18
C9P	-0.558 ± 0.15
H5L	0.375 ± 0.11
H5G	0.185 ± 0.084
H5A	0.488 ± 0.12
H5R	0.192 ± 0.089
H5N	-0.072 ± 0.17
H5K	0.021 ± 0.14
H5E	0.024 ± 0.13
H5M	0.497 ± 0.12
H5S	0.293 ± 0.1
H5F	-0.144 ± 0.3
H5Q	-0.046 ± 0.16
H5V	0.464 ± 0.088
H5T	0.116 ± 0.12

Variant	abundance fitness
H5P	0.124 ± 0.13
H5I	0.079 ± 0.17
H5C	0.394 ± 0.21
H5W	-0.038 ± 0.1
H5D	-0.81 ± 0.22
T3Y	0.171 ± 0.19
T3R	0.119 ± 0.094
T3E	0.268 ± 0.18
T3G	0.342 ± 0.091
T3F	0.275 ± 0.19
T3S	0.077 ± 0.12
T3K	0.264 ± 0.16
T3W	0.236 ± 0.12
T3V	0.027 ± 0.12
T3N	-0.37 ± 0.23
T3A	0.098 ± 0.11
T3H	-0.407 ± 0.29
T3D	0.023 ± 0.23
T3C	-0.267 ± 0.18
T3Q	0.05 ± 0.17
T3I	0.465 ± 0.22
T3M	0.567 ± 0.16
